The results in this text go back to patent publication US20230039109A1 (Novartis, published 2023).

The target of this assay is T1, human CD73 expressed on the cell surface (human, UniProt P21589 27-549).
T1 construct: whole, on cells; also called surface CD73
T1 sequence (looked up): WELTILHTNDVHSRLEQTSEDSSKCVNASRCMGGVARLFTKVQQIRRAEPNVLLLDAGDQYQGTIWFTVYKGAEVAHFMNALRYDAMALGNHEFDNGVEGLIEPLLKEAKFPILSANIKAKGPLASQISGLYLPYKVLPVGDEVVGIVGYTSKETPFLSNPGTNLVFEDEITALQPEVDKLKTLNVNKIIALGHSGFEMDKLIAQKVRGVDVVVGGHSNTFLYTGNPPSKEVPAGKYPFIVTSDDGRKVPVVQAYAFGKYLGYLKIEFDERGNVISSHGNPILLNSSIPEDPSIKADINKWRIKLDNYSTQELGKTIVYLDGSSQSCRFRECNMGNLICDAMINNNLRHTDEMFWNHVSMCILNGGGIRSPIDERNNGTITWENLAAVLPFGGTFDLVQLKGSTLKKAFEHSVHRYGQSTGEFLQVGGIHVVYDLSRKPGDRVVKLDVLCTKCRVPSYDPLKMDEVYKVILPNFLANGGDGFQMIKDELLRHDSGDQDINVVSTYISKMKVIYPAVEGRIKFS
In words: flow cytometry, biotinylated antibody in human whole blood, CD8+ T cells, streptavidin-APC. How it is done:
Whole blood target engagement was assessed by flow cytometry using whole blood from healthy human donors. Briefly, biotinylated antibodies were incubated with whole blood for 30 minutes prior to red blood cell lysis and fixation. Fixed cells were stained for CD3 and CD8 to identify CD8+ T cells, and streptavidin-APC to detect biotin. After staining, the cell were washed and subjected to flow cytometry analysis.

B1: anti-CD73 antibody 356.B (antibody, human IgG4 S228P, kappa, V domains shown)
VH: QVQLQESGPGLVKPSETLSLTCTVSGGSIEGRYWSWIRQPPGKGLEWIGYIYGSGSTKYNPSLKSRVTISVDTSKNQFSLKLSSVTAADTAVYYCARESQESPYNNWFDPWGQGTLVTVSS
VL: DIQMTQSPSSVSASVGDRVTITCRASQGISSWLAWYQQKPGKAPKLLIYAASSLQSGVPSRFSGSGSGTDFTLTISSLQPEDFATYYCQQGNSFPRTFGGGTKVEIKR
notes: IgG4 S228P/L235E format; The last heavy chain residue X is K or absent; Biotinylated in the whole blood flow cytometry assay
What is called EC50 (read off the curve) is the concentration at which the effect is half-maximal. The low end stands for higher potency in that assay, the high end for lower potency in that assay. For B1, the “EC50 (read off the curve)” value is roughly 6 ng/mL.
